# Test results reported in US20110229478A1, “ERBB3 BASED METHODS AND COMPOSITIONS FOR TREATING NEOPLASMS” (ZENSUN (SHANGHAI) SCIENCE & TECHNOLOGY LIMITED, priority 2002, published 2011).
# Several values for one entry are separate records, joined by “and”; a condition that tells them apart may be missing. Equal entries are not always repeated.
# B1: rhErbB3-f12: protein segment of ErbB3 extra-cell membrane region (SEQ ID NO:14) expressed by E. coli (protein, listed as Homo sapiens)
# chain: MKYLLPTAAAGLLLLAAQPAMAMDIKHNRPRRDCVAEGKVCDPLCSSGGCWGPGPGQCLSCRNYSRGGVCVTHCNFLNGEPLEHHHHHH
# B2: DE3-1: extra-cell membrane ErbB3 protein segment (SEQ ID NO:3) expressed by E. coli, N end fused with Trx Tag, His Tag and S-Tag (protein, listed as Homo sapiens)
# chain: MRANDALQVLGLLFSLARGSEVGNSQAVCPGTLNGLSVTGDAENQYQTLYKLYERCEVVMGNLEIVLTGHNADLSFLQWIREVTGYVLVAMNEFSTLPLPNLRVVRGTQVYDGKFAIFVMLNYNTNSSHALRQLRLTQLTEILSGGVYIEKNDKLCHMDTIDWRDIVRDRDAEIVVKDNGRSCPPCHEVC
# modifications: N-terminal Trx, His, S tags
# B3: rhErbB3-f78: ErbB3 extra-cell membrane protein segment (SEQ ID NO:16) expressed by E. coli (protein, listed as Homo sapiens)
# chain: MVCVASCPHNFVVDQTSCVRACPPDKMEVDKNGLKMCEPCGGLCPKACEGTGSGSRFQTVDSSNIDGFVNCTKILGNLDFLITGLNGDPWHKIPALDPEKLNVFRTVREITGYLNIQSWPPHMHNFSVFSNLTTIGGRSKLAAALEHHHHHH
# Columns and labels:
# [1] = tested on: transplanted tumour from spontaneous tumour of neu protein over-expressed FVB/N transgenic mice; assay: Therapeutic effect of various dosage of DE3-1 in transplanted tumour model (Table 3); assay type: in vivo
# Excerpt: (§1) Transplanted tumour model, after immunohistological screening test, about 1000 mm^3 tumour mass was cut down from spontaneous tumour of neu protein over-expressed FVB/N transgenic mice. The tumour mass was abraded into single cells with nylon net, the amount injected under the breast of each FVB/N transgenic mice was 5×10^6 cells.
# (§2) Preparing animal and transplanted animal tumor model: The same as (Experiment on therapeutic effect of B3 and DE3-1 rhErbB3-f12 and rhErbB3-f78 vaccine on immune therapy against tumor). No treatment was given to the control group, histag protein was injected to the negative control group, and Adriamycin (Santou MingZhi Pharmaceuticals) was administered for the positive control group, 5 μg, 20 μg and 80 μg was given to DE3-1 group respectively.
# One day after the inoculation, Adriamycin 2.2 mg/kg was injected abdominally for consecutive 7 days in mice of the positive control group; histag protein+Al(OH)^3 was injected abdominally for mice of the negative control group; In DE3-1 group, the vaccine was absorbed on 0.1 mg of Al(OH)^3 and multi-points subcutaneous injection every 2 weeks for a total of 3 injections were carried out in mice. The experiment completed in 14 days after the third injection. Tumor development was monitored weekly, tumor size was measured with vernier and the size was expressed as (length diameter×short diameter 2/2), curve of tumor growth was protracted and analyzed statistically.
# (§3) Tumor weight was measured after completion of the experiment and tumor-inhibitory rate was calculated, tumor inhibitory rate=[(tumor weight of control group−tumor weight of experiment groups)/tumor weight of control group]×100.
# [2] = tested on: transplanted tumour from spontaneous tumour of neu protein over-expressed FVB/N transgenic mice; assay: Anti-tumor effect of rhErbB3-f78 (Table 5); assay type: in vivo
# Excerpt: as §1
# (§4) Experiment on the therapeutic effect of various dosage of DE3-1 rhErbB3412 and rhErbB3-f78 on immune therapy against tumor.
# as §2, §3
# [3] = tested on: transplanted tumour from spontaneous tumour of neu protein over-expressed FVB/N transgenic mice; assay: Anti-tumor effect of rhErbB3-f12 (Table 4); assay type: in vivo
# Excerpt: as §1, §4, §2, §3
# [4] = tested on: tumor development in FVB/N transgenic mice (neu protein over-expression, spontaneous breast cancer); assay: Preventive effect of B3, DE3-1 on tumor development; assay type: in vivo; conditions: for Incidence of tumor growth / Time of tumor occurrence: injected abdominally every 20 days, 7 injections, 40 mice; for Tumor-inhibitory effect against the development of tumor, incidence versus negative control group: ×2 testing versus BSA + CFA control
# Method: 8-10 weeks old FVB/N transgenic mice (bought from Jackson Lab USA) was selected as experiment animals, the mice were divided into 5 groups with 40 mice each, they were control group, B2, B3 and DE3-1 group; BSA, B2, SD32, B3, DE3-1 was mixed with Freud's adjuvant (CFA, complete Freud's adjuvant, bought from Sigma company) and injected abdominally every 20 days for 7 injections respectively to various groups. The dosage of BSA, B2, SD32, B3 and DE3-1 vaccine was 10, 5, 10, 1 and 10 μg/mouse/injection. Weekly monitor tumour development. The tumour development was verified and analysed statistically.
# Objective of the present experiment is to explore whether there is preventive effect of B3 or DE3-1 vaccine on tumor development. The reason to choose this type of transgenic mice as experiment animal model, is because rat wild type neu cDNA controlled by mice breast virus promotor was transferred into the body of mice and produce over-expression of neu protein and spontaneous breast cancer occurred within 5-8 months in half of the mice. Natural course of tumor in the transgenic mice and its pathologic pattern is similar to that of human breast cancer. Therefore, it may have better therapeutic effect when used clinically. The sample contains 40 animals in each group, the aim of selecting such large sample is to ensure the number of cases which have the disorders will be greater than 10 animals, thus will be of greater implication statistically. The selection of dosage is based on the results of pre-experiments.
# [5] = tested on: transplanted tumour from spontaneous tumour of neu protein over-expressed FVB/N transgenic mice; assay: Therapeutic effect of B3 vaccine in transplanted tumour model (Table 2); assay type: in vivo
# Method: as §1
# Nothing was administrated in the control group; 24 hours after the inoculation, SD32 and B3 vaccine injection started in SD32 and B3 experiment groups, the aforementioned vaccines were absorbed on 0.1 mg/ml of Al(OH)3 respectively, and injected multi-pointedly every 2 weeks for a total of three injections; the experiment was completed in 14 days after the third injection. Morbidity was monitored weekly, tumor size was measured weekly with vernier. Volume (length diameter×short diameter 2/2) of the tumor was used to represent their size, and curve of tumor growth was protracted,
# Tumor weight was measured after completion of the experiment and tumor-inhibitory rate was calculated, inhibitory rate=[(tumor weight of control group−tumor weight of experiment groups)/tumor weight of control group]×100.
# B2 and B3 antigen = assay: Cross immunity of B2 and B3 antigen (ELISA antibody titer); conditions: serum of immunized FVB transgenic mice, ELISA on wrapped B2 or B3 protein, 450 nm
# Method: FVB transgenic mice were immuned with B2 protein and B3 protein respectively, 10 days thereafter, blood was withdrawn and antibody titer was tested with ELISA. 0.3 μg/hole of B2 and B3 was wrapped, 1:1000 B2 and B3 on each plate were titrated with standard serum respectively, cultured at 37° C. for 30 minutes, sealed with 1% BSA, added double antibody, color development for 15 minutes with DAD, tested with Bio-Rad 450 nm enzyme labeled device.
# [6] = ADR 2.2 mg/kg injected abdominally for consecutive 7 days
# [7] = 5 μg + Al(OH)3, subcutaneous every 2 weeks, 3 injections
# [8] = 20 μg + Al(OH)3, subcutaneous every 2 weeks, 3 injections
# [9] = 80 μg + Al(OH)3, subcutaneous every 2 weeks, 3 injections
molecule,measurement,setting,value
"COc1cccc2c1C(=O)c1c(O)c3c(c(O)c1C2=O)C[C@@](O)(C(=O)CO)C[C@@H]3O[C@H]1C[C@H](N)[C@H](O)[C@H](C)O1 [ADR, Adriamycin, reference compound]",Inhibitory rate,[1]; [6],25.3%
same,Tumor size,[1]; [6],4603.1 ± 478.3 mm3
same,Tumor weight,[1]; [6],3.564 ± 0.42 g
same,Inhibitory rate,"[2]; 2 mg/kg, ip X 7 qd",40.98%
same,Tumor weight,"[2]; 2 mg/kg, ip X 7 qd",0.648 ± 0.27 g
"CC(=O)O[C@H]1C(=O)[C@@]2(C)[C@H]([C@H](OC(=O)c3ccccc3)[C@]3(O)C[C@H](OC(=O)[C@H](O)[C@@H](NC(=O)c4ccccc4)c4ccccc4)C(C)=C1C3(C)C)[C@]1(OC(C)=O)CO[C@@H]1C[C@@H]2O [Taxol, reference compound]",Inhibitory rate,"[3]; 10 mg/kg, ip X 7 qd",44.32%
same,Tumor weight,"[3]; 10 mg/kg, ip X 7 qd",3.09 ± 1.08 g
"B3: protein of ErbB3 extra-cell membrane region (SEQ ID NO:2), flag-tagged, expressed by eucaryotic cells; anti-tumor vaccine",Incidence of tumor growth,[4]; 5 μg/animal/dose + CFA,12.5%
same,Time of tumor occurrence,[4]; 5 μg/animal/dose + CFA,22 weeks and 20 weeks
same,"Tumor-inhibitory effect against the development of tumor, incidence versus negative control group",[4],significant tumor-inhibitory effect
same,Tumor-inhibitory effect (significance),"[5]; t testing, P<0.01",significant tumor-inhibitory effect
same,Inhibitory rate,"[5]; vaccine + Al(OH)3, every 2 weeks, three injections",33%
same,Tumor size,"[5]; vaccine + Al(OH)3, every 2 weeks, three injections, 5 weeks",5271.8 ± 658.9 mm3
same,Tumor weight,"[5]; vaccine + Al(OH)3, every 2 weeks, three injections, at completion of experiment",3.13 ± 0.33 g
same,Cross immunity between B2 and B3 antigen,B2 and B3 antigen,there isn't any cross immunity
B1,Inhibitory rate,"[3]; 0.25 mg/kg, sc X 3 q14d",58.39%
same,Tumor weight,"[3]; 0.25 mg/kg, sc X 3 q14d",2.31 ± 0.40 g
same,Inhibitory rate,"[3]; 0.5 mg/kg, sc X 3 q14d",52.61%
same,Tumor weight,"[3]; 0.5 mg/kg, sc X 3 q14d",2.62 ± 0.67 g
same,Inhibitory rate,"[3]; 1 mg/kg, sc X 3 q14d",56.76%
same,Tumor weight,"[3]; 1 mg/kg, sc X 3 q14d",2.40 ± 0.49 g
B2,Incidence of tumor growth,[4]; 10 μg/animal/dose + CFA,35%
same,Time of tumor occurrence,[4]; 10 μg/animal/dose + CFA,23 weeks
same,"Tumor-inhibitory effect against the development of tumor, incidence versus negative control group",[4],not significantly different
same,Inhibitory rate,[1]; [7],22.4%
same,Tumor size,[1]; [7],5563.7 ± 600.6 mm3
same,Tumor weight,[1]; [7],3.687 ± 0.45 g
same,Tumor size,[1]; [8],4715.0 ± 434.8 mm3
same,Tumor weight,[1]; [8],3.455 ± 0.41 g
same,Inhibitory rate,[1]; [9],26.3%
same,Tumor size,[1]; [9],4810.8 ± 460.5 mm3
same,Tumor weight,[1]; [9],3.658 ± 0.37 g
B3,Inhibitory rate,"[2]; 2.5 mg/kg, sc X 3 q14d",60.38%
same,Tumor weight,"[2]; 2.5 mg/kg, sc X 3 q14d",0.435 ± 0.12 g
